# According to patent publication US20230235027A1:
# Experiments:
# [1] = target: N501Y (SARS-CoV-2); assay: kinetic measurement, method not stated; table row N501Y
# [2] = target: E484K (SARS-CoV-2); assay: kinetic measurement, method not stated; table row E484K
# [3] = target: N439K (SARS-CoV-2); assay: kinetic measurement, method not stated; table row N439K
# [4] = target: F490L (SARS-CoV-2); assay: kinetic measurement, method not stated; table row F490L
# [5] = target: L452R (SARS-CoV-2); assay: kinetic measurement, method not stated; table row L452R
# [6] = target: B.1.351 (Gamma); assay: kinetic measurement, method not stated; table row B.1.351 (Gamma)
# [7] = target: K417N (SARS-CoV-2); assay: kinetic measurement, method not stated; table row K417N
# [8] = target: A475V (SARS-CoV-2); assay: kinetic measurement, method not stated; table row A475V
# NIH-CoVnb-112 (VHH), sequence (VHH): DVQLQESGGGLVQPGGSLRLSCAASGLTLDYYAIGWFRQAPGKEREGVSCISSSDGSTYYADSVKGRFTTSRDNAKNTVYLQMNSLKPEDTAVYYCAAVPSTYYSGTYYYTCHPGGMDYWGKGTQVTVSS
substance,measurement,setting,value
NIH-CoVnb-112 (VHH),koff,[1],0.000428 s⁻¹
same,kon,[1],153000 M⁻¹ s⁻¹
same,koff,[2],0.000304 s⁻¹
same,kon,[2],256000 M⁻¹ s⁻¹
same,koff,[3],0.000302 s⁻¹
same,kon,[3],189000 M⁻¹ s⁻¹
same,koff,[4],0.000926 s⁻¹
same,kon,[4],158000 M⁻¹ s⁻¹
same,koff,[5],0.00127 s⁻¹
same,kon,[5],209000 M⁻¹ s⁻¹
same,koff,[6],0.000705 s⁻¹
same,kon,[6],201000 M⁻¹ s⁻¹
same,koff,[7],0.000157 s⁻¹
same,kon,[7],120000 M⁻¹ s⁻¹
same,koff,[8],0.000209 s⁻¹
same,kon,[8],169000 M⁻¹ s⁻¹
